According to the supplement of paper PMC12764529:
± gives the half width of the 95% confidence interval.

Experiments:
[1] = folding stability dG unfold (combined trypsin and chymotrypsin); higher = more stable
In short: (§1)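 Mini-proteins designed to be under 80 residues and free of cysteine were carried in a PA-tagged cDNA display construct and digested with trypsin and with chymotrypsin. Each protease was applied at 11 threefold-diluted concentrations, alongside a no-protease condition, before sequencing. K50 came from Bayesian fitting of the sequencing counts, and unfolding free energy was obtained by comparing it with a sequence-predicted unfolded-state K50 and a shared folded-state K50, for each protease separately or for both together. Designs were retained only if their AlphaFold2 dimer inter-PAE exceeded 15.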

[2] = folding stability dG unfold from chymotrypsin proteolysis; higher = more stable
In short: as §1

| Sequence | folding stability dG unfold [1] [kcal/mol] | folding stability dG unfold [2] [kcal/mol] |
| --- | --- | --- |
| SAGGSSRTISIPVSPSLSPEEVAELIKKEVKKMGEDKEVKVLSVDPSGRIDVLVGDEPITVDASLPSAGGSA [r2_102_JUSTAS] | 0.235 ± 0.2 | 0.623 ± 0.1 |
| SAGGSSYIVKATPAGGPSFEAEATLTSVSSEGDNFTANVEVTFDGKPVTLTFDGDKVGPVVIEPPESAGGSA [r2_319_TrMRF] | -0.0521 ± 0.17 | 0.558 ± 0.15 |
| SAGGSTAEELADQIHKKFMEQGYKITDVDITYNPNNWVMVKATIRNPDDPNQRMKMNIMIPKDEIKSAGGSA [r2_384_TrROS] | 0.239 ± 0.29 | 0.649 ± 0.32 |
| SAGGSYMVKVEWRNNNKEMEMTHPFDDPEDALNFAHDLLPNGMELDIEVFDPKEGEPIGTVPFRVDSAGGSA [r2_390_TrROS] | < -1 | -0.536 ± 0.26 |
| SAGGTIKPGQPVRIRAEWYNGNKEWTHTHEFPLPENQTLDDVADEILEHLPPEHNKNFKVRIEIEPVSAGGS [r16_321_TrROS] | 0.373 ± 0.11 | 0.904 ± 0.1 |
| SAGGWVKDPDGQTVEMKVLDPGMNKDNAKPFADNIAEQLHRQHGMNPNNVKVKVETDPENGTVRVKVKSAGG [r13_913_TrROS] | < -1 | -0.385 ± 0.39 |
| SAGKMTIEIVVEVKPGMTEEELKEKLEELVKKLKEEFPELKNLEIKIVEVKVERLEDGTLRVTVKIEVKSAG [r5_985_TrROS_Hall] | > 6 | 3.08 ± 0.24 |
| SAGKVLEELGYELVEEKEEEIGDVKIITATFPVGESPVVVTAEVTEKKEDDKPIVKVKVTVTPLPPEAPSAG [r5_516_JUSTAS] | 0.58 ± 0.51 | 0.977 ± 0.17 |
| SAGMKIKVTIERGGDRAERILPPEEAKALLDKYPEDGEIPLDLEGEEVTVKIEKTPPALPTEEAIKELKSAG [r5_669_JUSTAS] | < -1 | 0.11 ± 0.4 |
| SAGMKVTVSPASLVFDPATGRLLRPVLVTVEDTGGGGKTPAEEQAAAAEATRRALAAELAPRTGSALDLSAG [r5_333_JUSTAS] | 0.37 ± 0.091 | 0.912 ± 0.069 |
| SAGMPADTFIELNITITVPSEEYEADPAAVKAAADAAIAAAKAAGLPVDAATFTFERVPPVDPNNPRVGSAG [r5_979_JUSTAS] | < -1 | -0.605 ± 0.2 |
| SAGMTPEDLKNGKPVKVPIPIPIRDPDGKPWAEIPIKGPMPVKDIMEVIETIREIARELKIPPSDGDKNSAG [r5_606_TrROS] | < -1 | -0.743 ± 0.53 |
| SAGMVIELPNATITIETVPDPSSSNKVYRVTVTAHLPDGSRPVVVLTFPENVPIEEILKEAIKAAEELLSAG [r5_704_JUSTAS] | > 6 | 5.93 ± 0.14 |
| SAGPAVAVAPIPALEARPDLKDALVRVVVSPLPDGRVAVDVRPVFVPKPVITPEEARELEELAEKLAASAGG [r19_313_TrMRF] | -0.224 ± 0.13 | 0.297 ± 0.027 |
| SAGPEIKIEPRSYDPKKGIFTYSAYVLDYKDGKKEREIEVGTWRYYGPDGTVEPISEEDILQKAKDLLSSAG [r5_909_TrMRF] | 0.371 ± 0.18 | 0.543 ± 0.32 |
| SAGPITPEEIQEKVTKAMEEEGMDNVNVDVQRDEDNGRITIQVEVQMPPGNKEKAQRIQDAIQDELGIKSAG [r5_9_TrROS] | 0.277 ± 0.099 | 0.89 ± 0.062 |
| SAGPWKIEVEQYDPNGKKEEIEDPEDLLDLAKDLPPNRMVHIKIPNGRETIMFQNPDGNVFVLKIERPESAG [r5_506_TrROS] | -0.374 ± 0.34 | -0.0396 ± 0.33 |
| SAGRIKSIQINPYENPNGQYPITVRVRWPGNGKERDRNFPMSPNDARNQAKELAKELPGKPLEIDEITSAGG [r19_317_TrROS] | -0.943 ± 0.19 | -0.545 ± 0.15 |
| SAGRRKVEIPIPFDDPGQAMSADELADELRELGLKPGHEPKVEPHPDGYMRVKFEVPGPEVTIHIPMWDSAG [r5_144_TrROS] | 0.183 ± 0.098 | 0.747 ± 0.16 |
| SAGRRSLVLLAPVDDPARAPTAEELARELLALGGTPATRPRAEPLEDDTLRVTFEAPGVDVTVLVDLRASAG [r5_144_TrMRF] | 0.138 ± 0.11 | 0.638 ± 0.12 |
| SAGSAVVRDFDFEVPPGYGVLDVTVTEGPGPPVWEGTVTFQAGGAPETLTVTIPVDPATGARSVAMTAGSAG [r5_136_JUSTAS] | -0.235 ± 0.25 | 0.267 ± 0.13 |
| SAGSVSLPPGAVLTEERKLPDGSLVRTTTTVSPVPELPVDRIETTTEFYAPGGEKIGTETSSSLRPPGESAG [r5_787_JUSTAS] | -0.493 ± 0.35 | -0.0977 ± 0.13 |

| Sequence | folding stability dG unfold [1] [kcal/mol] | folding stability dG unfold [2] [kcal/mol] |
| --- | --- | --- |
| SAGSVTRSFPSGSSVSAETDPETNTITISTSPSSGQLVAQLPTAGEKVVPVSDRDLEEAAKEAAEALLSSAG [r5_447_JUSTAS] | -0.854 ± 0.32 | -0.134 ± 0.12 |
| SAGVKIERDPNPGWMEITYPIDNKPIQIEIPMDPNNGQMKVKVEYGDGKPKEYTIPGGSIEEIIEDLFSAGG [r19_159_TrROS] | < -1 | 0.111 ± 0.23 |
| SAGVRYLVATGEDGATVVVPVPAETEEEAEEKAEELARELAERFPGARFVPVPVEEPELPPVEALPGVESAG [r5_950_TrMRF] | -0.46 ± 0.57 | 0.429 ± 0.11 |
| SAGWDLKIEPEPNPDNGMRMINIEYEDPDGDGPYTVSIMYHNGKIKAVEVQDPNTGEPELTPEALEELFSAG [r5_872_TrROS] | -0.305 ± 0.49 | 0.14 ± 0.26 |
| SAIKIEDDPNGYQQIEIPNPENGRKIVITMMYSPDGQFQMSLQRMDPNGKKKTITAPMPVEEAIDELKDSAG [r14_179_TrROS] | 0.0571 ± 0.6 | 0.698 ± 0.33 |
| SALDPAAGTVTATVTRPVTLPDGRTVPVTRPVRVPVTYDVVVRDPETGEVVRAADYDPETGRLRDASAASAG [r14_122_TrMRF] | < -1 | 0.548 ± 0.37 |
| SAMDLSTLPPSTSVTPSTSSLPGNLSRSTYTLTTRDPETGALTVTTVTTYTDPSSSSTTVTPSTTLLPASAG [r14_307_JUSTAS] | 0.00104 ± 0.15 | 0.34 ± 0.22 |
| SAMKIEIEVPSLEQVKKLEKLLPDKYKISEVKVDPETKKVYVIIELDPSLSPEEVAKLEKEFEEVVKEESAG [r14_306_TrMRF] | 5.14 ± 0.58 | 5.03 ± 0.28 |
| SAMNVTLTKHPDGTYTVGATLPGYSPVSTQTIPSSVPSYTVTYRTPDEVLKVTYKDSGLTPERVPISRLSAG [r14_403_JUSTAS] | -0.0343 ± 0.044 | 0.395 ± 0.053 |
| SAPVRTVTLNVPVERDAAGNLVPVSPEEIVAELEKEGYPREEIEVKNVTETTIPVTIEVDLVNGKMRVLGSA [r9_225_JUSTAS] | < -1 | -0.326 ± 0.61 |
| SAYYKIRWNNGREIELKDMPIEDLEKYFPGGPVEIEPVPPVPVVRIESWEQANDLAEQNPPNHTIIVMDSAG [r14_445_TrROS] | -0.634 ± 0.56 | -0.476 ± 0.83 |
| SGMDVFVASDPGPSYLRAEARLPGGESRVLTSGPPEEARALVERLAAEEDPAMAVRRVEEVPPGELPPELSA [r9_137_JUSTAS] | < -1 | -0.38 ± 0.18 |
| SGMTIEVEKEIEIYDPEKGVKIGSVKVKVLVPTSYSPEEIPEIAEKEIKKAKEELEKPEPPEVNEDGTLKSA [r9_454_JUSTAS] | 0.241 ± 0.16 | 0.751 ± 0.035 |
| SGMTTPVAEIDNTDGKPEKVKEWIKKTIPKTPPVTVTRTLASGAPSTWTIDPNTGKVTESVPGGHVTVAASA [r9_853_JUSTAS] | < -1 | -1.07 ± 0.7 |
| SGMVTLEDIAAAPPGTPVVVTTKKQGSKNLTFIDAVVDGARSSASYPSIEEARKELEAVGYPVEFVDPAESA [r9_1021_JUSTAS] | -0.429 ± 0.19 | 0.143 ± 0.066 |
| SIIIPPKESAEEVLNEIKELLPPGRKYKITVFNPENGRMHEADFDPKKGNIEVEPHPFPNGPPFLMIERKSA [r9_1059_TrROS] | -0.42 ± 0.49 | -0.387 ± 0.63 |
| SITISPDKVYTLKNVRVGDYEVDGLVAVAGPDGTVYVPADVRPVVVPPPAPPVGLDPVDGGVYDITDPSVSA [r9_603_TrMRF] | < -1 | -0.965 ± 0.61 |
| SKPITADEIAKHFPGIKDVEPTPNKKRLDFDNPNGHKPTIEVSPDGTIMIEHQNPDNGQKQEQEIPIDDLSA [r9_427_TrROS] | 0.0598 ± 0.26 | 0.596 ± 0.056 |
| SKTIYFPIPNDDPEEAVEWIADKLLEEHGHKIKDVEIPHKNGYYVRIEVDPNNPKIDIEVWPYDPDGEPLSA [r9_173_TrROS] | 0.534 ± 0.52 | 0.728 ± 0.18 |
| SKTVVIAADPNNPEAIKKAIEEAPPDTTIVIVVPLENGEYPKVTITRKPPEVPPIPPELLSEEEIKELLPSA [r9_1103_TrMRF] | 0.42 ± 0.14 | 0.836 ± 0.053 |
| SMTIKELLKAHPGQPVEDLAKRIMDEMNANFPNGMPIKINLEYDPGGIKVDVEMWNNDKPQTDEFTIRPDSA [r9_805_TrROS] | -0.000922 ± 0.15 | 0.327 ± 0.091 |
| SMTLVGTTTLPNATVTTYKNETKYIVLTYDPVEAGEPAAVSYVEKYEGNKVVKKKKVAPEEIEKAIEELLSA [r9_57_JUSTAS] | 0.247 ± 0.48 | 0.609 ± 0.32 |
